Earlier results on one substance are cited in PMC11962798.

In this data set the target is Spike protein RBD (SARS-CoV-2) (UniProt P0DTC2).

With Bamlanivimab, the Kd was 1.5 nM.

The Kd is a measure of binding affinity in units of concentration.
